The target in assay [1] is T1, recombinant FL spike WT-6P (SARS-CoV-2 WT (Wuhan-Hu-1), UniProt P0DTC2, stabilised, biotin (EZ-Link Sulfo-NHS-Biotin) in the BLI experiments). The assay can be described thus: ELISA. The settings on record: both partners purified. (An ELISA detects its analyte on a solid surface through an enzyme-linked reagent.)
In assay [2] the target is T1, recombinant FL spike WT-6P. In words: BLI. The settings on record: both partners purified.
Assay [3] addresses recombinant FL spike B.1.617.2 Delta, stabilized by 2P mutations (SARS-CoV-2, B.1.617.2 Delta, strain).
The target of assay [4] is recombinant FL spike B.1.351 Beta, stabilized by 2P mutations (SARS-CoV-2, B.1.351 Beta, strain).
The target in assay [5] is recombinant FL spike P.1 Gamma, stabilized by 2P mutations (SARS-CoV-2, P.1 Gamma, strain).
For assay [6], the target named is recombinant FL spike B.1.1.7 Alpha, stabilized by 2P mutations (SARS-CoV-2 B.1.1.7 Alpha, strain).

The record followed here is publication PMC10104900 (The Journal of Clinical Investigation, 2023).

B1: S728-1157 IgG (antibody, V domains shown)
VH: EVQLVESGGGLVQPGGSLRLSCAASGLLVSRNYMNWVRQAPGKGLEWVSIIYSGGSTFYADSVEGRFTISRDESKNTLYLQMNSLRTDDTAVYYCARDLSDYGGIDCWGQGTLVTVSS
VL: YELTQPLSVSMALGQTARISCGGDNVGSQNVHWYQQRPGQAPVLVIYRDSNRPSGIPERFSGSKSGNTATLTISRAQAGDEADYYCQVWDSSTVAFGGGTKLTVL
notes: copies: 2 + 2
For B1, the binding result in assay [1] is “binds”.

B2: S728-1157 Fab (Fab, V domains shown)
VH: EVQLVESGGGLVQPGGSLRLSCAASGLLVSRNYMNWVRQAPGKGLEWVSIIYSGGSTFYADSVEGRFTISRDESKNTLYLQMNSLRTDDTAVYYCARDLSDYGGIDCWGQGTLVTVSS
VL: YELTQPLSVSMALGQTARISCGGDNVGSQNVHWYQQRPGQAPVLVIYRDSNRPSGIPERFSGSKSGNTATLTISRAQAGDEADYYCQVWDSSTVAFGGGTKLTVL
In the case of B2, in assay [2], the binding result is “binds”.

B3: S451-1140 (antibody, V domains shown)
VH: EVQLVESGGGLVPPGGSLRLSCAASGFIFSNYAMTWVRQAPGKGLEWVSAISGGGGSTDYADSVKGRFTISRDNSKNTLYLQMNSLRAEDTAVYYCAKDLFGSGWSLFDNWGQGTLVTVS
VL: not shown
Turning to B3, the binding result in assay [3], in assay [4], in assay [5] and in assay [6] was “binds” in each case.

B4: S626-161 (antibody, V domains shown)
VH: QLQLQESGPGLVKPSEALSLTCTVSGGSISTSNYYWGWIRQPPGKGLEWIGSIYYRGGTHYNPSLKTRVTISVDTSKNQFSLKLSSVTAADTAVYYCARHTYFYDIVGAAVWEPFDIWGQGTMVTVSS
VL: not shown
For the molecule B4, the binding result in assay [3], in assay [4], in assay [5] and in assay [6] was “binds” throughout.
